Sequences and labels used below:
B1: pb10 N-terminal domain (NTD), residues 1 to 77 (domain or fragment)
chain: MIDYSGLRTIFGEKLPESHIFFATVAAHKYVPSYAFLRRELGLSSAHTNRKVWKKFVEAYGKAIPPAPPAPPLTLSK
B2: major capsid protein pb8 of bacteriophage T5 (natural protein, UniProt Q6QGD8 160-458, looked up)
chain: AVNQSSSVEVSSESYETIFSQRIIRDLQKELVVGALFEELPMSSKILTMLVEPDAGKATWVAASTYGTDTTTGEEVKGALKEIHFSTYKLAAKSFITDETEEDAIFSLLPLLRKRLIEAHAVSIEEAFMTGDGSGKPKGLLTLASEDSAKVVTEAKADGSVLVTAKTISKLRRKLGRHGLKLSKLVLIVSMDAYYDLLEDEEWQDVAQVGNDSVKLQGQVGRIYGLPVVVSEYFPAKANSAEFAVIVYKDNFVMPRQRAVTVERERQAGKQRDAYYVTQRVNLQRYFANGVVSGTYAAS
notes: major capsid protein (head protein) pb8 of bacteriophage T5, after its N-terminal scaffolding domain is cleaved off by the protease pb11; as a hexamer of the expanded capsid; Hexamer within the capsid lattice; the deposited model 5TJT is a homology model flexibly fitted into the cryo-EM map; also called head protein
B3: decoration protein pb10 of bacteriophage T5, full-length, fused to a C-terminal histidine tag (natural protein, UniProt Q6QGD6 1-164, looked up)
chain: MIDYSGLRTIFGEKLPESHIFFATVAAHKYVPSYAFLRRELGLSSAHTNRKVWKKFVEAYGKAIPPAPPAPPLTLSKDLTASMSVEEGAALTLSVTATGGTGPYTYAWTKDGSPIPDASGATYTKPTAAAEDAGSYKVTVTDSKQVSKDSTTCAVTVNPTVPGG
notes: decoration protein pb10 of bacteriophage T5, 164 amino acids, GenBank AAU05286; Monomer by SEC-MALLS (17 kDa); 18.3 kDa with the His tag; also called pb10-His; His-tagged pb10; source: pET28b expression vector, purified (expression and purification detailed in SI); not shown: His-Tag, C-terminal, kept
B4: pb10 F36A-R38E (natural protein)
chain: B3 chain with F36A, R38E
B5: pb10 R38E (natural protein)
chain: B3 chain with R38E
B6: pb10 Y34A-R38E (natural protein)
chain: B3 chain with Y34A, R38E
B7: pb10 F36A (natural protein)
chain: B3 chain with F36A
B8: pb10 R38A (natural protein)
chain: B3 chain with R38A
B9: pb10 F36A-R38A (natural protein)
chain: B3 chain with F36A, R38A

In data set [1] the target is bacteriophage T5 empty expanded capsid (without pb10) (bacteriophage T5). The experiment in a line: SPR; T200, 25 °C, PBS (137 mM NaCl) with 1 mg/mL BSA; expanded capsids captured on a CM5 chip through immobilised rabbit anti-capsid antibodies; pb10 variants 0.09 to 40 nM injected at 50 uL/min; koff set at 2 x 10^-4 s^-1 for all proteins; global fit to a Langmuir mass transport-limited model. In general terms: In SPR one partner is held on a chip, and binding of the other changes the refractive index at the surface.

Data set [2] deals with the molecule itself. The experiment in a line: cryo-EM structure; icosahedral reconstructions of empty expanded capsids with pb10 (9 Å) and without pb10 (8 Å); pb8 homology model fitted into the hexamer density.
For data set [3], the target named is bacteriophage T5 empty expanded capsid (without pb10) (bacteriophage T5). The experiment in a line: SPR; as a3 but PBS containing 500 mM NaCl; koff set at 2 x 10^-4 s^-1; single experiment.
Target sequence in this assay (Q6QGD5 11-403 limits assumed): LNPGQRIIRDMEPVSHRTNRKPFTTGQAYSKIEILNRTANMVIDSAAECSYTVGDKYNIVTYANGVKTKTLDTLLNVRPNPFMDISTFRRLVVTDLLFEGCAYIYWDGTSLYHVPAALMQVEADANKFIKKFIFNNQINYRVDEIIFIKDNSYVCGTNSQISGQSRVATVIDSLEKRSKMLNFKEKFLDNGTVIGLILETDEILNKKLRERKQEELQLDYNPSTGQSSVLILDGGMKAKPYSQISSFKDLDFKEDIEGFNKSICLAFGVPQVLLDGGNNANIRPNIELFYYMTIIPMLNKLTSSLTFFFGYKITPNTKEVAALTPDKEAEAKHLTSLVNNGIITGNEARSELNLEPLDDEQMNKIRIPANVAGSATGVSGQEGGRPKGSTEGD
Data set [4] shares this target. The experiment in a line: SPR; as a3 but PBS containing 300 mM NaCl; koff set at 2 x 10^-4 s^-1; single experiment.
Target sequence in this assay (Q6QGD5 11-403 limits assumed): as above
Data set [5] deals with B2. In words: cryo-EM structure; icosahedral reconstructions of empty expanded capsids with pb10 (9 Å) and without pb10 (8 Å); pb8 homology model fitted into the hexamer density. To be noted: both partners purified.
Data set [6] concerns the target bacteriophage T5 empty expanded capsid (without pb10) (bacteriophage T5). In words: SPR; as a3 but PBS containing 750 mM NaCl; koff set at 2 x 10^-4 s^-1; single experiment.
Target sequence in this assay (Q6QGD5 11-403 limits assumed): as above

Positions count from the first letter of the chain named. Names and notes keep the numbering of the source.

In data set [1], B1 registered a Kd of 0.55 pM, a koff of 0.0002 s⁻¹ and an association rate constant (kon) of 3.62e+08 M⁻¹ s⁻¹.
With B2, in data set [2], the “stoichiometry N” value turned out to be 6.
Take B3: in data set [3], the Kd was found to be 4.2 pM, the koff was determined as 0.0002 s⁻¹ and the kon was determined as 4.76e+07 M⁻¹ s⁻¹. In addition, in data set [1], the Kd is 1.11 pM, the koff came out at 0.0002 s⁻¹, the kon amounted to 1.8e+08 M⁻¹ s⁻¹ and the maximum mass increase of the capsid on decoration stood at 8%. Further, the signal decrease over 700 s of dissociation in data set [1] was determined as 7%. In addition, in data set [4], the Kd amounted to 1.8 pM, the koff was 0.0002 s⁻¹ and the kon is 1.11e+08 M⁻¹ s⁻¹. The binding result in data set [5] is “binds”. In data set [6], this molecule had a Kd of 22.2 pM, a koff of 0.0002 s⁻¹ and a kon of 9.01e+06 M⁻¹ s⁻¹.
Regarding B4, in data set [1], the Kd is 10.3 pM, the koff worked out at 0.0002 s⁻¹ and the kon came out at 1.95e+07 M⁻¹ s⁻¹.
As for B5, in data set [1], the dissociation constant (Kd) is 2.36 pM, the koff stood at 0.0002 s⁻¹ and the kon was found to be 8.47e+07 M⁻¹ s⁻¹.
In the same order, the values of B6 are 480 pM, 0.0002 s⁻¹ and 417000 M⁻¹ s⁻¹.
As for B7, in data set [1], the Kd stood at 0.23 pM, the koff turned out to be 0.0002 s⁻¹ and the kon worked out at 8.66e+08 M⁻¹ s⁻¹.
As for B8, in data set [1], the Kd was found to be 1.67 pM, the off-rate (koff) was determined as 0.0002 s⁻¹ and the kon was found to be 1.2e+08 M⁻¹ s⁻¹.
Take B9: in data set [1], the Kd worked out at 3.27 pM, the koff came to 0.0002 s⁻¹ and the kon is 6.11e+07 M⁻¹ s⁻¹.

A word on the Kd: it is the equilibrium constant for the complex coming apart. Broadly, the koff is the rate constant with which the complex falls apart. High values mean fast dissociation, low ones slow dissociation. As usually defined, the kon is a measure of how fast the partners come together. As a reminder, the stoichiometry N is the number of molecules, sites or subunits per partner or assembly.

The values are drawn from PMC5292684, “High affinity anchoring of the decoration protein pb10 onto the bacteriophage T5 capsid” (Scientific Reports, 2017).
